Starred links: 1 amine or outer side, 2 acyl side, 3 side chain; linkers in the order of their positions; H or OH if unused. Positions of bridges follow the written chain, without caps; N, C: chain ends. Non-standard residues stand in square brackets, D forms with d. Primed or numbered codes have the meaning given here. PyrS2″ = (S)-3-amino-1-((pent-4-en-1-yloxy)carbonyl)pyrrolidine-3-carboxylic acid (stapling residue), C=CCCCOC(=O)N1CC[C@@](N[*:1])(C(=O)[*:2])C1; B5(4) = 2,2-bis(4-pentenyl)glycine = 2-amino-2-(pent-4-en-1-yl)hept-6-enoic acid (stitching residue), C=CCCCC(CCCC=C)(N[*:1])C(=O)[*:2]; PyrS2 = (S)-3-amino-1-((pent-4-en-1-yloxy)carbonyl)pyrrolidine-3-carboxylic acid, C=CCCCOC(=O)N1CC[C@@](N[*:1])(C(=O)[*:2])C1; Phe(2-Cl) = N[C@@H](Cc1ccccc1Cl)C(=O)O; Bta = N[C@@H](Cc1csc2ccccc12)C(=O)O; αAllylPro = C=CC[C@@]1(C(=O)O)CCCN1; tBuAla = CC(C)(C)C[C@H](N)C(=O)O; 3Thi = N[C@@H](Cc1ccsc1)C(=O)O; Thr(ol) = C[C@@H](O)[C@H](N)CO Some results are limits rather than exact numbers.

Assay [1] has as its target T1, beta-catenin (in DLD1 TCF/LEF luciferase reporter cells) (UniProt P35222 1-781).
T1 sequence (looked up): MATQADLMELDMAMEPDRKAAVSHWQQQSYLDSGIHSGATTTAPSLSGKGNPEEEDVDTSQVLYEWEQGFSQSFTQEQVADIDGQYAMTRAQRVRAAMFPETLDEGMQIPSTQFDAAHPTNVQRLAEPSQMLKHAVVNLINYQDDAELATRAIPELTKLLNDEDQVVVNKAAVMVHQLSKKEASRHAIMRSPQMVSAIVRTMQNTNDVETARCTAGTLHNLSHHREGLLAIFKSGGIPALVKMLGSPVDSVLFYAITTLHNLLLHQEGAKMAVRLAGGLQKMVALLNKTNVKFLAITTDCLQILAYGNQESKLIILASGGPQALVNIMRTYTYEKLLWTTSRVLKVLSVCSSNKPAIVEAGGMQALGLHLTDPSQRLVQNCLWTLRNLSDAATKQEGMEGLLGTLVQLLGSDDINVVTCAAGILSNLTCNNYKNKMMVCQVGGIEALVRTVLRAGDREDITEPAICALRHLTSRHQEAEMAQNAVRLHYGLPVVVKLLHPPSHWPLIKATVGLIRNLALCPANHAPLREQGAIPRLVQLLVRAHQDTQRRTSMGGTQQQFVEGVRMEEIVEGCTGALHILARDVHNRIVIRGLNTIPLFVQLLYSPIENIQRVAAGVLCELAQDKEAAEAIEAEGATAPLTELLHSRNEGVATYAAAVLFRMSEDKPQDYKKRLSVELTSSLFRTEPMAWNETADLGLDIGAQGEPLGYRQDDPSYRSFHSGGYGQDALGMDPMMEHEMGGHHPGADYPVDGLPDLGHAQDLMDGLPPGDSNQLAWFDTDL
Briefly: cell-based or functional assay.

The next assay has as its target T2, B-cat-Halo (UniProt P35222 1-781).
T2 sequence (looked up): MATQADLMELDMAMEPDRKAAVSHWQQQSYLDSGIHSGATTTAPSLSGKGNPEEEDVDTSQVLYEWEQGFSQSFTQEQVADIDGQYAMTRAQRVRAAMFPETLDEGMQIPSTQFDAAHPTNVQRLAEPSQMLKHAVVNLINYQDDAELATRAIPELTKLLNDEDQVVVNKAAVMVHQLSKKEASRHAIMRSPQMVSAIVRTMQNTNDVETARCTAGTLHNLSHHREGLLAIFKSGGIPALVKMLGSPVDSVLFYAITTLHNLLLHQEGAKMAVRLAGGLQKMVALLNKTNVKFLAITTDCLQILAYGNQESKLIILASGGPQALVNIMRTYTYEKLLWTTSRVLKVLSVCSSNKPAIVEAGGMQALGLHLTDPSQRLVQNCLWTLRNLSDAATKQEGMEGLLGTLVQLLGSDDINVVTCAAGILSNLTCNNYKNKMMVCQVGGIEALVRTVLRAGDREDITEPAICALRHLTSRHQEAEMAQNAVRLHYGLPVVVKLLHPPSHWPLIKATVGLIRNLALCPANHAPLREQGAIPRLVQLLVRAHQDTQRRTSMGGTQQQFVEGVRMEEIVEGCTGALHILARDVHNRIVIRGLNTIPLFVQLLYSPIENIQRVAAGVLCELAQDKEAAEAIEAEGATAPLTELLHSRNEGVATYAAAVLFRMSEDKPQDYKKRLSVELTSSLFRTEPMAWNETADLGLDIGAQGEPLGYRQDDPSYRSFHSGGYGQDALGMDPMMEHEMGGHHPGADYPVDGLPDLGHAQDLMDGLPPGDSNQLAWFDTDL
Briefly: cell-based or functional assay.

The target of assay [2] is T3, full-length beta-Catenin (Uniprot ID P35222) (Homo sapiens (Human), UniProt P35222 2-781).
T3 construct: also called bCat; B-Catenin
T3 sequence: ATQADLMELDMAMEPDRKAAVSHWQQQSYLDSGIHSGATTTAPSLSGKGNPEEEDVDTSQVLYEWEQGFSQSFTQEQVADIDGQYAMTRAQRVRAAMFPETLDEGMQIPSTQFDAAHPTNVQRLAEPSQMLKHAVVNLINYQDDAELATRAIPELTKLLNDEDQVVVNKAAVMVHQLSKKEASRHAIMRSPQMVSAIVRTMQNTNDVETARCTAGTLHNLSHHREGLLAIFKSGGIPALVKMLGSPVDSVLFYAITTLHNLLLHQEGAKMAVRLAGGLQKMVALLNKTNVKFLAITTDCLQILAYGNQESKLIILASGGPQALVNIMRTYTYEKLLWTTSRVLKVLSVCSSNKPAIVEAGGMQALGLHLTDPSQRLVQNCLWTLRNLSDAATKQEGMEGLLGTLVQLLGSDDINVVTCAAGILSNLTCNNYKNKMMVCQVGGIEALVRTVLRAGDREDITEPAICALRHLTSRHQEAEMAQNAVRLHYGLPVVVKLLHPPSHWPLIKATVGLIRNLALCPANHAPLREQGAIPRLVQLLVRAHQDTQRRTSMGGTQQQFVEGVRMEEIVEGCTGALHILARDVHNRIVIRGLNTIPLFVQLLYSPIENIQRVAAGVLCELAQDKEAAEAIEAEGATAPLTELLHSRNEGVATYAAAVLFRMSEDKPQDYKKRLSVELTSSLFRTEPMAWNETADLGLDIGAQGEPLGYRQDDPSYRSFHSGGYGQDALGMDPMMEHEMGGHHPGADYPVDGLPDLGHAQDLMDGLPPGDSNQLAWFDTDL
The assay is described as follows: fluorescence polarization competition; full-length beta-catenin, competitor 5FAM-TCF4(10-53) probe. In outline: (§1)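 Data fitted to 1:1 binding model with hill slope from duplicate reads taken after 60 minutes at 20° C. in the dark.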
(In fluorescence polarisation assays a small probe gives low polarisation when free and higher when bound to something large.)

Assay [3] deals with T4, full-length beta-Catenin (Uniprot ID P35222) (Homo sapiens (Human), UniProt P35222 1-781).
T4 construct: The FP protocol says full-length beta-Catenin (Uniprot ID P35222); also called bCat; B-Catenin
T4 sequence: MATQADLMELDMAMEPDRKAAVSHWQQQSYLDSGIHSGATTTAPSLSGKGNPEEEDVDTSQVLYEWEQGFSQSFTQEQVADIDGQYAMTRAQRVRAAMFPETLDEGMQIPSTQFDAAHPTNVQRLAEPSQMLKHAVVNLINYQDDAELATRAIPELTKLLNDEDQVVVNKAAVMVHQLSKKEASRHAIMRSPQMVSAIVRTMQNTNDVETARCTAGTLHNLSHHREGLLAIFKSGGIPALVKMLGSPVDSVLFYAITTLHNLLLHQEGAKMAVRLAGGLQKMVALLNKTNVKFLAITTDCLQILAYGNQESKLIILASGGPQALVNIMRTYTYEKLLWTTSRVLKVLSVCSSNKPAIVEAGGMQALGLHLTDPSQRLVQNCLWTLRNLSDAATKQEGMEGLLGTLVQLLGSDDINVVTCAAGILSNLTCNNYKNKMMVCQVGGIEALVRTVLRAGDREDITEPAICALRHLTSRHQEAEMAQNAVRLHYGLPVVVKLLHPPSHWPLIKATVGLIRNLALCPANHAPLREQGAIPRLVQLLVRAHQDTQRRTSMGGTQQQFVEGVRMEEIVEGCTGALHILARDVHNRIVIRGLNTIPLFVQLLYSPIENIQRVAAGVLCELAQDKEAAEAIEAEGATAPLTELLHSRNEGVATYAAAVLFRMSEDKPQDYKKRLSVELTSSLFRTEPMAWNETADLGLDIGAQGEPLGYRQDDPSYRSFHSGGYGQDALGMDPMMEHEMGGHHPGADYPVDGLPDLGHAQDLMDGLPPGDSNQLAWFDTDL
The assay is described as above. In outline: as §1

For assay [4], the target named is T5, beta-catenin in DLD1 TCF/LEF luciferase reporter cells (UniProt P35222 1-781).
T5 sequence (looked up): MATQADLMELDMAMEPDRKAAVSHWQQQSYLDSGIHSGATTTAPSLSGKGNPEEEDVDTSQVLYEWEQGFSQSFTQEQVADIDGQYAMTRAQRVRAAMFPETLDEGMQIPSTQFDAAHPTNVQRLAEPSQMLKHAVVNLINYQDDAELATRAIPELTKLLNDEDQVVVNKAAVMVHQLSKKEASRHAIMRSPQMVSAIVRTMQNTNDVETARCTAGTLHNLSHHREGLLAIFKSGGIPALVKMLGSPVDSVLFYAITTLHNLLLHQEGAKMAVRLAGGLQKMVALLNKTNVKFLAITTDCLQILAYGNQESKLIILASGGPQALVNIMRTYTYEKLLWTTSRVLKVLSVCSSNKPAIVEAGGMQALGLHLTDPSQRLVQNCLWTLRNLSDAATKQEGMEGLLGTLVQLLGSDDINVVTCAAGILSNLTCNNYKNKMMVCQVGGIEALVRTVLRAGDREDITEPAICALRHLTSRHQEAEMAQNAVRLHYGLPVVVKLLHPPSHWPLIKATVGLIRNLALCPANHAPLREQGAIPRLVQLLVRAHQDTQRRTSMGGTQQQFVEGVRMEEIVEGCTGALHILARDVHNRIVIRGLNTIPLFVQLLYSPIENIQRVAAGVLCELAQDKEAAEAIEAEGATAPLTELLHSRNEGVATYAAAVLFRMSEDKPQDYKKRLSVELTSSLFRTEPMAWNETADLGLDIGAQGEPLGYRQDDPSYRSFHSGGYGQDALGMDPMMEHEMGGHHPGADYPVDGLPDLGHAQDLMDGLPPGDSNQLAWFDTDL
The assay is described as follows: cell-based or functional assay.

In assay [5] the target is T6, B-cat-Halo (beta-catenin HaloTag NanoBRET construct expressed in HEK293 cells) (UniProt P35222 1-781).
T6 sequence (looked up): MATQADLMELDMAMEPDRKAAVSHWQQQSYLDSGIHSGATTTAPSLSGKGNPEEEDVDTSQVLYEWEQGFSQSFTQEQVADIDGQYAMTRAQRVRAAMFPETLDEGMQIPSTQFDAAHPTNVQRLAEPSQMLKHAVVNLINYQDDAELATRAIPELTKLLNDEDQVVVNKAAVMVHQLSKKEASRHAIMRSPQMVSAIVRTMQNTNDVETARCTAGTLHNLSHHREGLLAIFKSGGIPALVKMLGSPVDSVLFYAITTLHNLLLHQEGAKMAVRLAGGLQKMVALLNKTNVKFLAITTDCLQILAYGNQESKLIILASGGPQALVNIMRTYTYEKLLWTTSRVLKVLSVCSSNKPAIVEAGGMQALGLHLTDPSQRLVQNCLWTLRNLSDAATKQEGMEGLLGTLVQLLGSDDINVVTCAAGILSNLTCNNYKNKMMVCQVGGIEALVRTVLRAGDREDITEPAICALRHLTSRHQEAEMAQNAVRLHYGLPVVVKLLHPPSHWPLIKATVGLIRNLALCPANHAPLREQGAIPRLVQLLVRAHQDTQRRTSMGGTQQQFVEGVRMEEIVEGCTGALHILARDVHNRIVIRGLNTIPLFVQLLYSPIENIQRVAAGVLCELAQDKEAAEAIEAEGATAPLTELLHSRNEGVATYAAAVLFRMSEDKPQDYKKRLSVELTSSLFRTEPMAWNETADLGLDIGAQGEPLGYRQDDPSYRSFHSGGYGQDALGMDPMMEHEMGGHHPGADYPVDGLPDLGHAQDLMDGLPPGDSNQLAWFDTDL
Briefly: cell-based or functional assay.

Turning to Ac-[αAllylPro]D[tBuAla][B5(4)]DDAAFL[PyrS2][3Thi][Bta][Thr(ol)] (staple 1-4, 4-11) [I-1302], the “DLD1 4% Abs IC50 (uM); TCF/LEF luciferase reporter in DLD1 cells” value in assay [1] was 4 µM. The “NanoBRET Abs IC50 (uM); B-cat-Halo / TCF4-Luc in HEK293 cells” value in the assay with B-cat-Halo amounted to 21.4 µM.

Consider Ac-[αAllylPro]DF[B5(4)]DDLLFT[PyrS2″][Phe(2-Cl)][Bta]S-NH2 (staple 1-4, 4-11, '2C1F' is printed for 2ClF) [I-1158], for which the half-inhibitory concentration (IC50) (commonly the concentration that inhibits the measured activity by half) in assay [2] was 0.168 µM.

On to Ac-[αAllylPro]DF[B5(4)]DDAAFS[PyrS2][Phe(2-Cl)][Bta]S-NH2 (staple 1-4, 4-11) [I-1051], for which, in assay [3], it took 0.014 µM to reach a half-maximal effect (EC50). Also, the “DLD1 reporter assay Abs IC50” value in assay [4] is > 20 µM. The “NanoBRET Abs IC50” value in assay [5] is > 20 µM.
